In patent publication US20190330332A1, “Hypothermia Ameliorating Agent” (Kao Corporation, priority 2016, published 2019):
One block for each molecule: values may come before it. Ends that are not written are not given here.

Experiments:
[1] = system: C57BL/6J male mice fed high fat diet; assay: Suppression of decrease in body temperature in mouse continuously taking in high fat diet; format: in vivo; details: in high fat diet for 26 weeks, measured at 34-week-old, compared to high fat diet control group
Description: Seven-week-old C57BL/6J male mice (CLEA Japan, Inc.) were transferred (room temperature: 23° C., humidity: 55±10%, light period: 7:00 to 19:00) and were fed with food and water ad libitum. The mice were acclimated using CE-2 (CLEA Japan, Inc.) as food for 1 week and were then grouped such that the body weights of each group were equivalent to each other and were fed with a normal diet containing 5% lipid (normal diet group), high fat diet containing 30% lipid (triacylglycerol) (high fat diet group), high fat diet containing 0.4% 4-hydroxybenzoic acid (2-bromobenzylidene) hydrazide (4H2BH, produced by the method described in Ling, et al., J. Med. Chem. 44: 3141-9, 2001) (4H2BH addition group), or high fat diet containing diacylglycerol (JP-A-2006-342084) instead of 30% triacylglycerol (DAG substitution group) for 26 weeks (34-week-old). During the breeding period, the body weight was measured once a week, and the food intake amount was measured twice a week. During the breeding period, the intake of the food and water was free. A probe was inserted into the rectum of each mouse at 34-week-old to measure the body temperature (rectal temperature).
(§1) The rectal temperature was measured with a digital rectal thermometer (NS-TC10, manufactured by NeuroScience, Inc.). […]

[2] = system: C57BLKS/J misty male mice (m/m mice); assay: Acute decrease in body temperature (rectal temperature) by GIP; format: in vivo, mouse; details: 5 nmol/kg body weight intraperitoneal, 8-week-old m/m mice
Description: (§2) Six-week-old C57BLKS/J misty male mice (m/m mice, Oriental Yeast Co., Ltd.) were transferred (room temperature: 23° C., humidity: 55±10%, light period: 7:00 to 19:00) and were fed with food and water ad libitum. The food was CE-2 (CLEA Japan, Inc.), and the mice were acclimated for 2 weeks under the above-mentioned environment and were then used for testing.
Mouse-derived GIP (manufactured by AnaSpec, Inc.) was dissolved in physiological saline at a concentration of 500 nM to give a GIP solution.
Physiological saline (control group) or the GIP solution (5 nmol/kg body weight) (GIP administration group) was intraperitoneally administered to mice (8-week-old) in the light period (9:00 to 10:00 a.m.). Before the administration and 0.5, 2, 4.5, and 8 hours after the administration, a probe was inserted into the rectum of each mouse to measure the body temperature (rectal temperature).
The rectal temperature was measured with a digital rectal thermometer (NS-TC10, manufactured by NeuroScience, Inc.). According to Jikken Dobutsu Handobukku (Handbook of Experimental Animals) (Yokendo CO. Ltd., published in 1983), each mouse was retained under no anesthesia, and the tip of a probe (RET-3 (19×0.7 mm shaft diameter), manufactured by Physitemp instruments, LLC) was then inserted into the rectum of the mouse by 0.5 to 1 cm to measure for 15 to 30 seconds. […]

[3] = system: leptin receptor deficient C57BLKS/J male mice (db/db mice); assay: Chronic decrease in body temperature by GIP and suppression by anti-GIP antibody; format: in vivo, mouse; details: intraperitoneal every morning for 28 days, measured 1 to 2 hours after administration
Description: as §2, with “Six-week-old leptin receptor deficient” for “Six-week-old”, “C57BLKS/J” for “C57BLKS/J misty”, “(db/db” for “(m/m”
Mouse-derived GIP (manufactured by AnaSpec, Inc.) was dissolved in physiological saline at a concentration of 500 nM to give a GIP solution. Mouse-derived GIP (manufactured by AnaSpec, Inc.) and the anti-active GIP antibody produced in Production Example 1 were dissolved in physiological saline at concentrations of 500 nM and 0.1 mg/mL, respectively, and the resulting solution was incubated for 1 to 2 hours at room temperature to give a GIP-binding anti-GIP antibody solution.
Physiological saline (control group), the GIP solution (5 nmol/kg body weight) (GIP administration group), or the GIP-binding anti-GIP antibody solution (GIP: 5 nmol/kg body weight, anti-GIP antibody: 1 mg/kg body weight) (GIP+anti-GIP antibody administration group) was intraperitoneally administered to mice (8-week-old) every morning (9:00 to 10:00 a.m.). […]
as §1

GIP(1-42) = molecular target: T1, GIP(1-42) (Homo sapiens, UniProt P09681); assay: Reactivity with active GIP by sandwich ELISA; format: binding; details: biotinylated antibody 1 μg/mL as detection antibody, GIP 8.2 to 2000 pg/mL
T1 sequence (P09681 52-93): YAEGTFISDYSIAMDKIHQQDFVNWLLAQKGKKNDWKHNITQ
Description: (§3) The reactivity between the monoclonal antibody prepared in Production Example 1 and active GIP was confirmed by ELISA. The amino group of the anti-active GIP monoclonal antibody was biotinylated with NH2 group biotinylation kit (manufactured by Dojindo Laboratories). ELISA was performed using the produced biotinylated anti-active GIP monoclonal antibody at 1 μg/mL instead of a detection antibody, GIP detection antibody (biotinylated anti-total GIP monoclonal antibody), included in Human (total) GIP ELISA kit (manufactured by EMD Millipore Corporation). A […] dilution series of GIP(1-42) or GIP(3-42) was prepared in 6 steps (8.2 to 2000 pg/mL) with a 2000 pg/mL solution as the highest concentration. By using an anti-total GIP monoclonal antibody (included in Human GIP (total) ELISA kit manufactured by EMD Millipore Corporation) as a capture antibody, the biotinylated anti-active GIP monoclonal antibody as a detection antibody, and a peroxidase-streptavidin conjugate for detection, sandwich ELISA was conducted to prepare a calibration curve with GIP concentration on the X-axis and 450 nm-590 nm absorbance on the Y-axis (FIG. 1).

GIP(3-42) = molecular target: T2, GIP(3-42) (Homo sapiens, UniProt P09681); assay: Cross-reactivity with inactive GIP by sandwich ELISA; format: binding; details: biotinylated antibody 1 μg/mL as detection antibody, GIP 8.2 to 2000 pg/mL
T2 sequence (P09681 54-93): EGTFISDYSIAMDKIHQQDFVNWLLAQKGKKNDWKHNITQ
Description: as §3

[4] = system: C57BL/6J male mice (107-week-old); assay: Suppression of decrease in body temperature by anti-GIP antibody in aged mouse; format: in vivo; details: aged C57BL/6J mice, 0.5 mg/kg intraperitoneal once a week for 8 weeks
Description: Four-week-old C57BL/6J male mice (CLEA Japan, Inc.) were transferred (room temperature: 23° C., humidity: 55±10%, light period: 7:00 to 19:00) and were fed with food (D12450K, Research Diets, Inc.) and water ad libitum for 111 weeks.
The anti-active GIP antibody produced in Production Example 1 was dissolved in physiological saline at a concentration of 0.05 mg/mL to give an anti-GIP antibody solution.
Physiological saline (control group) or the anti-GIP antibody solution (0.5 mg/kg body weight) (anti-GIP antibody administration group) was intraperitoneally administered to C57BL/6J mice (107-week-old) once a week (9:00 to 10:00 a.m.). The administration period was 8 weeks, and the probe was inserted into the rectum of each mouse chronologically (at 2 to 4 weeks intervals) to measure the body temperature (rectal temperature).
The rectal temperature was measured with a digital rectal thermometer (NS-TC10, manufactured by NeuroScience, Inc.). According to Jikken Dobutsu Handobukku (Handbook of Experimental Animals) (Yokendo CO. Ltd., published in 1983), each mouse was retained under no anesthesia, and the tip of a probe (RET-3 (19×0.7 mm shaft diameter), manufactured by Physitemp instruments, LLC) was then inserted into the rectum of the mouse by 0.5 to 1 cm to measure for 15 to 30 seconds.
The analysis results were shown as the average value (Ave.)±standard error (SE). […]

[5] = molecular target: T3, PEGylated N-terminus 15 amino acids of active GIP (GIP(1-15)) (also: PEGylated, site not given here); assay: ELISA on immobilized antigen, hybridoma culture supernatant
T3 construct: Immobilized for the ELISA; also called antigen (1) for measurement; PEGylated GIP(1-15)
T3 peptide: YAEGTFISDYSIAMD
Description: (§4) The reaction between the hybridoma culture supernatant and the antigen (1) and (2) for measurement was evaluated by ELISA using immobilized antigen (1) and (2), and hybridomas that are positive for the antigen (1) and negative for the antigen (2) were selected as anti-active GIP monoclonal antibody-producing hybridomas.

[6] = molecular target: T4, PEGylated N-terminus 13 amino acids of inactive GIP (GIP(3-15)) (also: PEGylated, site not given here); assay: as above
T4 construct: Immobilized for the ELISA; also called antigen (2) for measurement; PEGylated GIP(3-15)
T4 peptide: EGTFISDYSIAMD
Description: as §4

GIP(3-42) (inactive GIP) = molecular target: T5, GIP(3-42) (inactive GIP); assay: sandwich ELISA; anti-total GIP monoclonal antibody as capture, biotinylated anti-active GIP antibody at 1 ug/mL as detector
T5 peptide: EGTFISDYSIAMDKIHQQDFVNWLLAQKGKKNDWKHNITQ
Description: as §3, with “NH₂” for “NH2”

Molecule: O=C(NN=Cc1ccccc1Br)c1ccc(O)cc1 [4H2BH, 4-hydroxybenzoic acid (2-bromobenzylidene) hydrazide]
decrease in body temperature (rectal) due to high fat diet intake [1]: suppressed

Molecule: GIP: Mouse-derived GIP (gastric inhibitory polypeptide, manufactured by AnaSpec, Inc.) dissolved in physiological saline at 500 nM (YAEGTFISDYSIAMDKIRQQDFVNWLLAQRGKKSDWKHNITQ)
decrease in the body temperature (rectal) compared to the control group ([2]; after 2 hours): 0.83 °C
decrease in the body temperature (rectal) compared to the control group ([2]; after 4.5 hours): 0.81 °C
chronic change in body temperature (rectal) compared to the control group [3]: chronic decrease in the body temperature was observed

binding result [5]: binds
binding result [6]: no binding
B1: anti-active GIP monoclonal antibody produced by hybridoma 9B9H5-B9 line (Production Example 1) (antibody, V domains shown)
VH: QVQLQQPGAELVKPGASVKLSCKASGYTFTSFWMHWVIQRPGQGLEWIGEMNPSDGRTHFNEKFKTKATLTIDTSSNTAYMELNSLTSEDSAVYYCARRMEDWGQGTLVTVSA
VL: DIKMTQSPSSMYASLGERVTITCKASQDINSYLGWFQQKPGKSPKTLIYGANRLVDGVPSRFSGSGSGQDYSLTISSLEYDDMGIYYCLQYDEFPLTFGAGTKLELKR
notes: in the screening and cloning ELISA it was hybridoma culture supernatant; also called anti-active GIP antibody
reactivity with GIP(1-42) (450 nm-590 nm absorbance) (GIP(1-42)): capable of specifically detecting GIP(1-42)
cross-reactivity with GIP(3-42) (450 nm-590 nm absorbance) (GIP(3-42)): does not show cross-reactivity with GIP(3-42)
body temperature (rectal) compared to the control group and the non-administration group [4]: significantly high
decrease in the body temperature with aging [4]: suppression of a decrease in the body temperature with aging was observed
binding result (GIP(3-42) (inactive GIP)): no binding (tested: 2000 pg/mL (highest GIP concentration))
